Data: US7041790B2, “Fibrinogen binding moieties” (Dyax Corp., priority 2002, dated 2006)
Bridges are numbered along the chain shown (N, C = ends).

Molecular target: T1, purified human fibrinogen (Homo sapiens, UniProt P02671+P02675+P02679)
T1 construct: purchased Calbiochem 341576
T1 sequence (P02671 20-629 limits assumed): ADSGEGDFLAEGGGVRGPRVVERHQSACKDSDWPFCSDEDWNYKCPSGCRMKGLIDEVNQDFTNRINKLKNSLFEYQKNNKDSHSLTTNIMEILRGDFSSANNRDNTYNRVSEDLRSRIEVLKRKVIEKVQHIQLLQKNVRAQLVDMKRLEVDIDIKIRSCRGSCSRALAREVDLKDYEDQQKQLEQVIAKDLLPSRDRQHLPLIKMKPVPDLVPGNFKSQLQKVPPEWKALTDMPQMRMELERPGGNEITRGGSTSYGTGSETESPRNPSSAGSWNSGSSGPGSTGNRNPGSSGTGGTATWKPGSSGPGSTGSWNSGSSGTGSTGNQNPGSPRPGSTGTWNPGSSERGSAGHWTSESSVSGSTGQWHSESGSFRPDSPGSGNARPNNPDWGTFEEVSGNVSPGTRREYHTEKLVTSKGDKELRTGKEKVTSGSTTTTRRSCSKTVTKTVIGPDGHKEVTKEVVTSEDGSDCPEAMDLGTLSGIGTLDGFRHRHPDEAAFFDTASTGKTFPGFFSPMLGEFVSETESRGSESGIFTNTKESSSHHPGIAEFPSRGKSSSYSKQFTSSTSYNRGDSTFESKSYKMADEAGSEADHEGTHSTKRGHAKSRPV
T1 sequence (P02675 31-491): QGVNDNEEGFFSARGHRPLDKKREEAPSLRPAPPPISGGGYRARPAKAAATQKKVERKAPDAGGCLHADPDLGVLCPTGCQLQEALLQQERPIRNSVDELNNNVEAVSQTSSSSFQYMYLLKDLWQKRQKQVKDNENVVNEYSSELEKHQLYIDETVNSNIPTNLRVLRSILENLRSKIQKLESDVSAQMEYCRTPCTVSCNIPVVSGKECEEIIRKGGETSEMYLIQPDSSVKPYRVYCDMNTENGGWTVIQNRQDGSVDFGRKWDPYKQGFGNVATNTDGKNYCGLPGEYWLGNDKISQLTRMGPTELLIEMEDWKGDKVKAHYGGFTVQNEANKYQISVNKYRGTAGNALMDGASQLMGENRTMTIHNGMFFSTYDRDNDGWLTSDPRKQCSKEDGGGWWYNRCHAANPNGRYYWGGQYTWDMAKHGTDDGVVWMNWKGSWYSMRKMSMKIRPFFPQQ
T1 sequence (P02679 27-433 limits assumed): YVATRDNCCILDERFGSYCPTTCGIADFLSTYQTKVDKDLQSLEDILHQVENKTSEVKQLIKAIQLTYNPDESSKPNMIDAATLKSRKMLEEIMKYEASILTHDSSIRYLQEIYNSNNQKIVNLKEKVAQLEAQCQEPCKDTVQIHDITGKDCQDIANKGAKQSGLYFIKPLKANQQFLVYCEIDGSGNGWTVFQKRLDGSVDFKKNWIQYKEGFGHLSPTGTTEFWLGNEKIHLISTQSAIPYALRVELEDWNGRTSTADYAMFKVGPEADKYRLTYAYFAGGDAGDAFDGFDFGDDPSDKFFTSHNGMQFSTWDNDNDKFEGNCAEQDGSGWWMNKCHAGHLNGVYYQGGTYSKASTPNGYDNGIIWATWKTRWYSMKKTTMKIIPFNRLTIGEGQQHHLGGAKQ
Assay: Purified fibrinogen binding capacity of fibrinogen binding columns
Conditions: purified fibrinogen 0.5 mg/ml in PBS injected continuously, eluted with glycine 0.1M pH 2.5
Method: FIG. 1 is a chromatogram illustrating the purified fibrinogen binding capacity of a fibrinogen binding column utilizing the fibrinogen binding peptide of SEQ ID NO:48 and having a ligand density of 2.0 μM/ml resin. Purified fibrinogen (0.5 mg/ml in PBS) was injected continuously onto the column until the A280 reading reached a plateau. The column was then washed with PBS until a baseline reading was obtained and then eluted with glycine buffer (0.1M, pH 2.5). The eluted fraction (major peak) was collected and analyzed by HPLC Size Exclusion Chromatography (SEC). The capacity of the column was calculated to be 2.076 mg fibrinogen/ml resin.
FIG. 2 is a chromatogram illustrating the purified fibrinogen binding capacity of a fibrinogen binding column utilizing the fibrinogen binding peptide of SEQ ID NO:48 and having a ligand density of 4.0 μM/ml resin. Purified fibrinogen (0.5 mg/ml in PBS) was injected continuously onto the column until the A280 reading reached a plateau. The column was then washed with PBS until a baseline reading was obtained and then eluted with glycine buffer (0.1M, pH 2.5). The eluted fraction (major peak) was collected and analyzed by HPLC Size Exclusion Chromatography (SEC). The capacity of the column was calculated to be 4.1 mg fibrinogen/ml resin. […]

## SEQ ID NO:48: fibrinogen binding polypeptide containing the cyclic core peptide of SEQ ID NO: 43 (Ac-AEGTGSLYLCNSYPMHPYCNPGK-NH2; disulfide 10-19 (inferred))
Ligand density 2.0 μM/ml resin
  fibrinogen binding capacity of the column: 2.076 mg fibrinogen/ml resin
Ligand density 4.0 μM/ml resin
  fibrinogen binding capacity of the column: 4.1 mg fibrinogen/ml resin
